According to article PMC7972841, “In Vivo Molecular Imaging of the Efficacy of Aminopeptidase N (APN/CD13) Receptor Inhibitor Treatment on Experimental Tumors Using ^68Ga-NODAGA-c(NGR) Peptide” (BioMed Research International, 2021):
Read-outs that look alike come from different tables or passages of the source. Where a SMILES comes first, the peptide text is derived from it. Bridges are numbered along the chain shown (N, C = ends). The star is where a group is joined. NODAGA = O=C(O)CN1CCN(CC(=O)O)CCN(C(CCC(=O)*)C(=O)O)CC1

Legend:
in vitro = in vitro ADME; details: mouse, serum
Description: 5 mg (8.6 μmol) c[KNGRE]-NH2 peptide was dissolved in 0.9 mL 0.1 mol/dm^3 Na2CO3 buffer (pH = 8.42), then 7.5 mg (10.2 μmol) NODAGA-NHS ester dissolved in 0.1 mL DMSO was added to the peptide. The reaction was mixed for 24 hours at room temperature. NODAGA-c(NGR) was purified with semipreparative HPLC (KNAUER) and freeze-dried. For the radiolabeling procedure, the in vitro serum stability, and the determination of logp value, the same protocol was used as it was described earlier by our research group.
For the determination of the enzymatic stability, a stock solution was prepared from 100 μL of ^68Ga-NODAGA-c(NGR) solution and 1 mL PBS. 20 μL from this solution was introduced to 480 μL mouse serum (Sigma-Aldrich, St. Louis, Missouri, USA), and the mixture was tempered at 37°C. After 0, 30, 60, 90, and 120 min incubation time, 50 μL sample was taken and 50 μL abs. EtOH was added to the aliquots. Samples were centrifuged (20,000 rpm, 5 min), the supernatant was removed and diluted with the eluent of HPLC, then the analytical measurement was prepared.

in vivo [1] = details: CB17 SCID, mouse, iv, 5.5 MBq, total radioactivity
Description: (§2) For the actinonin-treated groups, 5 mg/kg actinonin (dissolved in 10 μL abs. EtOH and diluted with 140 μL HumAqua (aqua destillata, TEVA, Debrecen, Hungary)) was administrated daily by intraperitoneal injection for 7 days. The control-untreated group was injected intraperitoneally with 150 μL saline for 7 days.
(§3) After in vivo PET imaging, control-untreated tumor-bearing and treated tumor-bearing animals were euthanized with 5% Forane and dissected, and blood, urine, and samples were taken from the liver, spleen, kidney, small intestine, large intestine, stomach, heart, lungs, tumors, muscles, and fat. The weight and radioactivity of the selected organs and tissues were measured with a calibrated gamma counter (Hewlett Packard Cobra II Autogama Gamma Counter). The uptake of the APN/CD13-specific ^68Ga-NODAGA-c(NGR) radiotracer was expressed as %ID/g tissue.

HT1080 tumors (APN/CD13) = details: for T/M SUVmean ratio of treated tumor: 90 min after iv tracer; for ^68Ga-NODAGA-c(NGR) SUVmean of treated tumor: PET 90 min after iv tracer, mean ± SD
Description: (§4) For experimental tumor induction, mice were anaesthetized with a dedicated small animal anaesthesia device (Tec3 Isoflurane Vaporizer, Eickemeyer Veterinary Equipment, UK) using 3% isoflurane (Forane, AbbVie), 0.4 L/min O2, and 1.4 L/min N2O. After depilation of the left shoulder area of the animals, CB17 SCID mice (n = 30) were injected subcutaneously with 1.5 × 10^6 HT1080 (human fibrosarcoma) cells in 150 μL (1/3 part of Matrigel and 2/3 part of saline), and C57BL/6 mice (n = 30) were injected subcutaneously with 3 × 10^6 B16-F10 cells in 150 μL of sterile saline. […] The tumor size was calculated using the following formula: (largest diameter × smallest diameter^2)/2.
as §2
(§5) Five and ten days after tumor cell implantation, control-untreated tumor-bearing and treated tumor-bearing animals were anaesthetized with 3% isoflurane and were injected with 5.5 ± 0.2 MBq APN/CD13-specific ^68Ga-NODAGA-c(NGR) in 150 μL saline via the lateral tail vein. After 90 min incubation time, 20 min static PET scans were performed from the tumorous area using the preclinical miniPET device (University of Debrecen, Faculty of Medicine, Department of Medical Imaging, Division of Nuclear Medicine and Translational Imaging). After 3D OSEM-LOR image reconstruction, volumes of interest (VOIs) were manually drawn around the examined regions using the BrainCAD image analysis software and quantitative standardized uptake values (SUVs) were calculated as follows: SUV = [VOI activity (Bq/mL)]/[injected activity (Bq)/animal weight (g)], assuming a density of 1 g/mL. Tumor-to-muscle (T/M) ratios were calculated from the activity of the tumor and background (muscle).

in vivo [2] = details: CB17 SCID, mouse, iv, 5.5 MBq, total radioactivity, SUVmean of tumor
Description: as §4, §2, §5

[3] = tested on: B16-F10 tumors (APN/CD13); details: for T/M ratio of treated tumor: 90 min after iv tracer; for ^68Ga-NODAGA-c(NGR) SUVmean of treated tumor: PET 90 min after iv tracer, mean ± SD
Description: as §4, §2, §5

in vivo [4] = details: C57BL/6, mouse, iv, 5.5 MBq, total radioactivity, SUVmean of tumor
Description: as §4, §2, §5

[5] = set-up: species or system mice; details: mouse, in vivo
Description: as §3

in vivo [6] = details: C57BL/6, mouse, iv, 5.5 MBq, total radioactivity, tracer uptake
Description: as §2, §3

HT1080 tumor = assay: Ex vivo biodistribution, HT1080 tumor-bearing mice; details: HT1080 tumor-bearing mice treated ip daily (bestatin 15 mg/kg or actinonin 5 mg/kg), mean±SD, n=10
Description: as §2, §3

APN/CD13 = assay: Western blot analysis of APN/CD13 in B16-F10 tumors; format: in vivo, mouse; details: B16-F10 melanoma after treatment, densitometry
Description: For western blot analysis, frozen tissue samples were pulverized under liquid nitrogen, and tissue homogenization was performed with TissueLyser II (QIAGEN). Tumors were lysed in a RIPA buffer. After protein isolation, protein samples (10-40 μg) were separated on 10% SDS polyacrylamide gels and electrotransferred onto nitrocellulose membranes. After blocking, the membranes were incubated with primary anti-human and anti-mouse CD13 (from Santa-Cruz Biotechnology, Inc., USA) antibody at the dilution of 1 : 1000 overnight at 4°C. After washing, the membranes were probed with IgG HRP conjugated secondary antibody (Cell Signaling Technology, Inc., Beverly, MA, 1 : 2000). Beta-actin was used as a loading control. Bands were visualized by enhanced chemiluminescence reaction. Densitometry was performed using the ImageJ software.
For western blot analysis frozen tissue samples were pulverized under liquid nitrogen and tissue homogenization was performed with TissueLyser II (QIAGEN). Cells were lysed in RIPA buffer (50 mM Tris, 150 mM NaCl, 0.1 % SDS, 1 % TritonX 100, 0.5 % sodium deoxycolate, 1 mM EDTA, 1 mM Na3VO4, 1 mM NaF, 1 mM PMSF, protease inhibitor cocktail). […] Upon densitometry, negative control samples (mouse large intestine) were considered to be 1 and values are expressed as fold change relative to controls to reduce unwanted variations. […]

[7] = tested on: human (HL60, NB4) and murine (AKR) leukemia cell lines; details: in vitro; cited from earlier work
From the text: (§1) In our further in vivo experiments, the efficacy of the actinonin and bestatin treatments was investigated on experimental tumors. The antitumor effect of actinonin was investigated earlier by Xu and coworkers on human (HL60, NB4) and murine (AKR) leukemia and lymphoma (RAJI, DAUDI) cell lines. […] In in vivo studies, syng ...

AKR tumor = details: 5 mg/kg, syngeneic AKR tumor-bearing mice; cited from earlier work
From the text: as §1

human lymphoma = details: subcutaneous human lymphoma-bearing nude mice; cited from earlier work
From the text: as §1

[8] = tested on: lymphoma (RAJI, DAUDI) cell lines; details: in vitro; cited from earlier work
From the text: as §1

B16-F10 tumors = assay: Tumor volume, B16-F10 tumors; format: in vivo, C57BL/6 mice; details: caliper, n = 10/group
Description: (§6) For experimental tumor induction, mice were anaesthetized with a dedicated small animal anaesthesia device (Tec3 Isoflurane Vaporizer, Eickemeyer Veterinary Equipment, UK) using 3% isoflurane (Forane, AbbVie), 0.4 L/min O2, and 1.4 L/min N2O. After depilation of the left shoulder area of the animals, CB17 SCID mice (n = 30) were injected subcutaneously with 1.5 × 10^6 HT1080 (human fibrosarcoma) cells in 150 μL (1/3 part of Matrigel and 2/3 part of saline), and C57BL/6 mice (n = 30) were injected subcutaneously with 3 × 10^6 B16-F10 cells in 150 μL of sterile saline. Tumor growth was assessed by caliper measurements by the same experienced researcher. The tumor size was calculated using the following formula: (largest diameter × smallest diameter^2)/2.
as §2

HT1080 tumors = assay: Tumor volume, HT1080 tumors; format: in vivo, CB17 SCID mice; details: caliper, n = 10/group
Description: as §6, §2

B16-F10 tumor = assay: Ex vivo biodistribution, B16-F10 tumor-bearing mice; details: B16-F10 tumor-bearing mice treated ip daily (bestatin 15 mg/kg or actinonin 5 mg/kg), mean±SD, n=10
Description: as §2, §3

[9] = HT1080, day 5, bestatin 15 mg/kg or actinonin 5 mg/kg ip daily
[10] = HT1080, day 10, bestatin 15 mg/kg or actinonin 5 mg/kg ip daily 7 days
[11] = B16-F10, day 5, bestatin 15 mg/kg or actinonin 5 mg/kg ip daily
[12] = B16-F10, day 10, bestatin 15 mg/kg or actinonin 5 mg/kg ip daily 7 days

Compound: N=C(N)NCCC[C@@H]1NC(=O)CNC(=O)[C@H](CC(N)=O)NC(=O)[C@H](CCCCNC(=O)CCC(C(=O)O)N2CCN(CC(=O)O)CCN(CC(=O)O)CC2)NC(=O)CC[C@@H](C(N)=O)NC1=O (some centres unmarked) [^68Ga-NODAGA-c(NGR), metal not drawn] (K(NODAGA)NGRE-NH2; lactam N-5 (inferred))
- remaining at 2 h (in vitro): > 99%
- tissue uptake at 1.5 h (in vivo [1]; T/M ID%/g (%ID/g tumor/%ID/g muscle)): 5.3 ± 0.56 %ID/g
- tissue uptake at 1.5 h (in vivo [1]; tracer uptake, blood): 0.04 ± 0.01 %ID/g
- tissue uptake at 1.5 h (in vivo [1]; tracer uptake, fat): 0.02 ± 0.01 %ID/g
- tissue uptake at 1.5 h (in vivo [1]; tracer uptake, heart): 0.03 ± 0.01 %ID/g
- tissue uptake at 1.5 h (in vivo [1]; tracer uptake, kidney): 1.35 ± 0.45 %ID/g
- tissue uptake at 1.5 h (in vivo [1]; tracer uptake, large intestine): 0.06 ± 0.01 %ID/g
- tissue uptake at 1.5 h (in vivo [1]; tracer uptake, liver): 0.2 ± 0.01 %ID/g
- tissue uptake at 1.5 h (in vivo [1]; tracer uptake, lung): 0.1 ± 0.02 %ID/g
- tissue uptake at 1.5 h (in vivo [1]; tracer uptake, muscle): 0.01 %ID/g
- tissue uptake at 1.5 h (in vivo [1]; tracer uptake, small intestine): 0.04 %ID/g
- tissue uptake at 1.5 h (in vivo [1]; tracer uptake, spleen): 0.11 ± 0.02 %ID/g
- tissue uptake at 1.5 h (in vivo [1]; tracer uptake, stomach): 0.04 ± 0.01 %ID/g
- tissue uptake at 1.5 h (in vivo [1]; tracer uptake, tumor): 0.08 ± 0.04 %ID/g
- SUVmean of tumor (HT1080 tumors (APN/CD13); CB17 SCID, mouse, in vivo, iv, 5.5 MBq, 1.5 h): 0.10 ± 0.05
- SUV at 1.5 h (in vivo [2]): 0.07 ± 0.03 SUV
- SUVmean of tumor ([3]; C57BL/6, mouse, in vivo, iv, 5.5 MBq, 1.5 h): 0.36 ± 0.05
- SUV at 1.5 h (in vivo [4]): 0.19 ± 0.03 SUV
- accumulation in the kidneys [5]: 1.3-1.6 ID%/g
- uptake in the liver [5]: 0.08-0.28 ID%/g
- tissue uptake at 1.5 h (in vivo [6]; blood): 0.09 ± 0.03 %ID/g
- tissue uptake at 1.5 h (in vivo [6]; fat): 0.01 %ID/g
- tissue uptake at 1.5 h (in vivo [6]; heart): 0.04 ± 0.01 %ID/g
- tissue uptake at 1.5 h (in vivo [6]; kidney): 1.38 ± 0.13 %ID/g
- tissue uptake at 1.5 h (in vivo [6]; large intestine): 0.06 ± 0.02 %ID/g
- tissue uptake at 1.5 h (in vivo [6]; liver): 0.08 ± 0.02 %ID/g
- tissue uptake at 1.5 h (in vivo [6]; lung): 0.1 ± 0.01 %ID/g
- tissue uptake at 1.5 h (in vivo [6]; muscle): 0.02 %ID/g
- tissue uptake at 1.5 h (in vivo [6]; small intestine): 0.07 ± 0.01 %ID/g
- tissue uptake at 1.5 h (in vivo [6]; spleen): 0.05 ± 0.01 %ID/g
- tissue uptake at 1.5 h (in vivo [6]; stomach): 0.06 ± 0.01 %ID/g
- tissue uptake at 1.5 h (in vivo [6]; tumor): 0.27 ± 0.05 %ID/g

Compound: CCCCC[C@H](CC(=O)NO)C(=O)N[C@H](C(=O)N1CCC[C@H]1CO)C(C)C [actinonin]
- T/M ID%/g, treated animals (HT1080 tumor): 15.27±5.52
- T/M SUVmean ratio of treated tumor (HT1080 tumors (APN/CD13); [9]): 2.25 ± 1.0
- ^68Ga-NODAGA-c(NGR) SUVmean of treated tumor (HT1080 tumors (APN/CD13); HT1080, day 5, ip daily from day 3 (bestatin 15 mg/kg, actinonin 5 mg/kg)): 0.08 ± 0.04
- T/M SUVmean ratio of treated tumor (HT1080 tumors (APN/CD13); [10]): 15.57 ± 4.0
- ^68Ga-NODAGA-c(NGR) SUVmean of treated tumor (HT1080 tumors (APN/CD13); HT1080, day 10, ip daily 7 days (bestatin 15 mg/kg, actinonin 5 mg/kg)): 0.11 ± 0.05
- T/M ratio of treated tumor [3, 11]: 0.75 ± 0.15
- ^68Ga-NODAGA-c(NGR) SUVmean of treated tumor ([3]; B16-F10, day 5, ip daily from day 3 (bestatin 15 mg/kg, actinonin 5 mg/kg)): 0.02 ± 0.001
- T/M ratio of treated tumor [3, 12]: 0.74 ± 0.05
- ^68Ga-NODAGA-c(NGR) SUVmean of treated tumor ([3]; B16-F10, day 10, ip daily 7 days (bestatin 15 mg/kg, actinonin 5 mg/kg)): 0.02 ± 0.001
- expression of APN/CD13 in tumor vs untreated (APN/CD13): significantly lower
- tumor growth of APN/CD13-positive leukemia [7]: blocked the tumor growth
- antitumor effect (AKR tumor): full antitumor effect
- antitumor effect (human lymphoma): not seen
- growth of APN/CD13-negative lymphomas [8]: arrested the growth
- tumor volume (B16-F10 tumors; B16-F10, day 3 (start of treatment)): 49.0 ± 2.7 mm^3
- tumor volume (B16-F10 tumors; [11]): 59 ± 4.9 mm^3
- tumor volume (B16-F10 tumors; [12]): 56.1 ± 2.1 mm^3
- tumor volume (HT1080 tumors; HT1080, day 3 (start of treatment)): 49.1 ± 2.0 mm^3
- tumor volume (HT1080 tumors; [9]): 68.08 ± 2.5 mm^3
- tumor volume (HT1080 tumors; [10]): 136.0 ± 8.5 mm^3
- T/M ID%/g, treated animals (B16-F10 tumor): 1.71±1.45
